# Article PMC11325161
# Biological target: SARS-CoV-2 nsp12 wild type (SARS-CoV-2) (UniProt P0DTD1)
# Experiment: MST
# Details: complex
substance,measurement,value
"subcomplex of wt nsp7, wt nsp8 and dsRNA (1:2:1) (from UniProt P0DTD1)",EC50,12.6 nM
